Measured values: patent US20230303674A1

Tests used:
[1] = target: human α-CGRP K35A (19-37) (human); assay: Biacore SPR, 25 °C, Fab over peptide on chip; KD ratio to parent 19-37
[2] = target: human α-CGRP 1-37 (WT) (human); assay: Biacore 37°C, Fab over biotinylated CGRP on SA chip
rat α-CGRP (1-37) (rat) = assay: as above
[3] = target: human α-CGRP G33A (25-37) (human); assay: Biacore SPR, 25 °C, Fab over peptide on chip; KD ratio to parent 25-37
[4] = target: human α-CGRP V28A (25-37) (human); assay: as above
[5] = target: human α-CGRP V32A (25-37) (human); assay: as above
[6] = target: human α-CGRP T30A (25-37) (human); assay: as above
[7] = target: human α-CGRP F37A (25-37) (human); assay: as above
[8] = target: human α-CGRP N31A (25-37) (human); assay: as above
[9] = target: human α-CGRP F27A (25-37) (human); assay: as above
[10] = target: human α-CGRP S34A (25-37) (human); assay: as above
[11] = target: human α-CGRP P29A (25-37) (human); assay: as above
[12] = target: human α-CGRP 1-37 (WT) (human); assay: Biacore 25°C, Fab over biotinylated CGRP on SA chip
[13] = target: human α-CGRP fragment 25-37 (human); assay: Biacore SPR, 25 °C, Fab flowed over biotinylated peptide on SA chip; mean ± SD of two measurements
[14] = target: human α-CGRP fragment 19-37 (human); assay: as above

Sequence of human α-CGRP 1-37 (WT) (human) (peptide, as listed by the source): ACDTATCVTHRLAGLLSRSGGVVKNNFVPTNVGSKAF
Sequence of rat α-CGRP (1-37) (rat) (peptide, as listed by the source): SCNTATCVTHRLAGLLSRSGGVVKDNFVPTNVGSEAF

KD(mutant/parent) [1]: 4
Kd [2]: 0.9 nM
Kd (rat α-CGRP (1-37) (rat)): 47 nM
KD(mutant/parent) [3]: 1260
KD(mutant/parent) [4]: 1
KD(mutant/parent) [5]: 41
KD(mutant/parent) [6]: 7
KD(mutant/parent) [7]: 3600
KD(mutant/parent) [8]: 9
KD(mutant/parent) [9]: 1
KD(mutant/parent) [10]: 69
KD(mutant/parent) [11]: 26
Kd [12]: 1 nM
Kd [13]: 0.14 nM
Kd [14]: 1.1 nM
Substance: murine anti-CGRP monoclonal antibody 7E9, Fab fragment
